Measured values published in patent US20110318846, “Aptamer and detection method for C-reactive protein” (National Cheng-Kung University, published 2011).

T1: C-reactive protein (CRP) (Homo sapiens, UniProt P02741 P02741:19-224)
T1 sequence: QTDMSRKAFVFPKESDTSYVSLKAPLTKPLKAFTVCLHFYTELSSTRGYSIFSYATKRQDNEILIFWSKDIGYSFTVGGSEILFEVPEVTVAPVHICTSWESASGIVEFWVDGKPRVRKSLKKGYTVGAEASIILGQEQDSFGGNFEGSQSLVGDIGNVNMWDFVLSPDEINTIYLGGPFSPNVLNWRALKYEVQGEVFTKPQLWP

B1: aptamer B (ssDNA)
DNA: GGCAGGAAGACAAACACACAAGCGGGTGGGTGTGTACTATTGCAGTATCTATTCTGTGGTCTGTGGTGCTGT
B2: aptamer A (ssDNA)
DNA: GGCAGGAAGACAAACACGATGGGGGGGTATGATTTGATGTGGTTGTTGCATGATCGTGGTCTGTGGTGCTGT
modifications: 5'-biotin (SPR and bead assay)

Key:
C-reactive protein (CRP) [1] = biological target: T1, C-reactive protein (CRP); assay: competition; PCR product 3; CRP-coated tube, competition with free CRP, PCR readout, 25 C; conditions: immobilised on Dynabeads M-450 Epoxy for SELEX, in solution for SPR; chain copies: 5 inferred (pentamer)
C-reactive protein (CRP) [2] = biological target: T1, C-reactive protein (CRP); assay: SPR; Biacore X, SA chip with biotinylated aptamer, 10 mM Tris, 50 mM NaCl, 2 mM CaCl2, 25 C, 1:1 Langmuir; conditions: immobilised on Dynabeads M-450 Epoxy for SELEX, in solution for SPR; chain copies: 5 inferred (pentamer)
Experimental: Then, 90 μL of the aptamer solution A being cooled to 4° C. is aliquoted, and the aptamer solution A is injected to pass the surface of the SA sensor chip, so that the aptamers A in the aptamer solution A is coated on the surface of the SA sensor chip. Later, 90 μL of the reverse primer solution is injected and passes through the surface of the SA sensor chip for blocking. Subsequently, 5×SSCT buffer is used to wash the surface of the SA sensor chip until the SPR response reaches a balance.
Five cycles as described in the following are then performed. Here, each cycle includes: (1) injecting 90 μL of the testing solution to pass through the surface of the SA sensor chip; (2) washing the surface of the SA sensor chip by using 90 μL of a washing buffer C (10 mM Tris buffer containing 50 mM NaCl and 2 mM CaCl₂); (3) recording the SPR response of the SA sensor chip for 5 min; and (4) injecting 90 μL of 100 mM NaOH to pass the surface of the SA sensor chip, so that the surface of the SA sensor chip is regenerated. The testing solutions used in the five cycles are washing buffers C respectively having a CRP concentration of 0.01, 0.05, 0.1, and 0.5 mg/L.
FIG. 4 is a SPR response measured under different CRP concentrations detected by the SA sensor chip coated with aptamers A along with time in the Biacore X system. […]

Binder	binding result (C-reactive protein (CRP) [1])	Kd (C-reactive protein (CRP) [2]) [nM]
B1	binds	–
B2	–	3.51
